For orientation: EC50 means the midpoint of the concentration-response curve.

Assay [1] concerns the target T1, Recombinant DR3-Fc (R&D Systems, cat. #943-D3) (UniProt Q93038 25-199, limits assumed).
T1 construct: dimeric MW~92 kDa; also called DR3 receptor; Fc-DR3; not shown: Fc part of the bought fusion
T1 sequence (looked up): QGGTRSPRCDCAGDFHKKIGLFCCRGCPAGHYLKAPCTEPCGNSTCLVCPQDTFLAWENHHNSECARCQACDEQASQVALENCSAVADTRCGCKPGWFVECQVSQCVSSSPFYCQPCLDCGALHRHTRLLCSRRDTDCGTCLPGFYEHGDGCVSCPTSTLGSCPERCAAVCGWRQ
As to the kind of experiment: ELISA, DR3-Fc immobilized. On the procedure:
All ELISA-based measurements were collected in triplicate, and error values report the standard error between measurements. Recombinant DR3-Fc (R&D Systems, cat. #943-D3), dimeric MW˜92 kDa, was non-specifically immobilized onto plates (Nunc maxisorp, cat. #436110) in 100 μL DR3-Fc, diluted to 10 μg/mL onto a 96-well White Maxisorp plate (Nunc, cat #436110) (O/N, 4° C.). Plates were block for 1 hour at room temperature with 250 μl/well of casein buffer and blocking buffer was removed. 50 μL of TL1A variants were diluted in StartingBlock PBS (Thermo Fisher Scientific), at 25 μg/mL, diluting 3× over each well, according to the plate map description for 20160623) per well on a 96-well White Maxisorp plate (Nunc, cat #: 436110) (overnight at 4° C.).
Plates were washed three times with TBST. 100 μl/well polyclonal rabbit anti-human TL1A-biotin antibody (diluted 1:1000 in Starting Block PBS) was added and plates were incubated for 1 hour at room temperature with shaking at 150 rpm. TL1A-biotin antibody was removed and 100 μl/well streptavidin-HRP conjugate (diluted 1:10,000 in Starting Block PBS) was added to plates. […] 100 μl/well POD Chemiluminescence substrate (Roche, cat #: 11582950001) was added immediately prior to reading plate luminescence using a Molecular Devices M5 plate reader with a delay setting of 100 ms.
A general note: ELISA stands for enzyme-linked immunosorbent assay.

Assay [2] has as its target T1, Recombinant DR3-Fc (R&D Systems, cat. …). The experiment in a line: ELISA.

B1: TL1W19 (His-TEV-TL1A-TL1A-TL1A) (ligand)
chain: HHHHHHENLYFQGAPLRADGDKPRAHLTVVRQTPTQHFKNQFPALHWEHELGLAFTKNRMNYTNKFLLIPESGDYFIYSQVTFRGMTSECSEIRQAGRPNKPDSITVVITKVTDSYPEPTQLLMGTKSVCEVGSNWFQPIYLGAMFSLQEGDKLMVNVSDISLVDYTKEDKTFFGAFLLAPLRADGDKPRAHLTVVRQTPTQHFKNQFPALHWEHELGLAFTKNRMNYTNKFLLIPESGDYFIYSQVTFRGMTSECSEIRQAGRPNKPDSITVVITKVTDSYPEPTQLLMGTKSVCEVGSNWFQPIYLGAMFSLQEGDKLMVNVSDISLVDYTKEDKTFFGAFLLAPLRADGDKPRAHLTVVRQTPTQHFKNQFPALHWEHELGLAFTKNRMNYTNKFLLIPESGDYFIYSQVTFRGMTSECSEIRQAGRPNKPDSITVVITKVTDSYPEPTQLLMGTKSVCEVGSNWFQPIYLGAMFSLQEGDKLMVNVSDISLVDYTKEDKTFFGAFLL
notes: Single-chain trimer, three TL1A copies in one chain; also called His-scTL1A; His-scTL1A (TL1W19)
Take B1: the EC50 in assay [1] is 27.3 nM. Besides, the “fold weaker EC50 than other molecules” value in assay [2] is approximately 3 fold.
